In the supplement of paper PMC6757056:
± gives the standard deviation of the averaged measurements.

B1: library; a variant is named by its letters at N, in order (parent)
chain: GCUGUCACCGAGAAACUGUGAAGUAUAUCUUAAACCUGGGCACUUAAAAGAUAUAUGGAGUUAGUAGUGCAACCUGCUCGGUCUGAUGAGUCCNNNNNNGGACGAAACAGC

Assays:
cyclic di-GMP [1] = variants of: B1; assay: FACS-Seq fitted mean relative fluorescence mCherry/BFP without ligand (log10 relative fluorescence); HEK293T; ligand: cyclic di-GMP (c-di-GMP-II aptamer); higher = higher reporter protein expression; settings: ligand present: no
Procedure, shortened: (§1)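 Enriched HEK293T cells carrying, by lentivirus, an mCherry reporter with the ribozyme switch and an EF1α-BFP marker spent 48 h with or without ligand and were sorted into 6 bins by mCherry/BFP. MiSeq sequencing of PCR-amplified bin genomic DNA gave bin counts. Fluorescence was calculated as the fitted normal mean of those counts. Counts were binned on log10(mCherry/BFP), and means were scaled to five spiked-in control ribozymes.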

cyclic di-GMP [2] = variants of: B1; assay: normalized RNA/DNA level without ligand (relative to sTRSVctl = 100) (log10 (% of sTRSVctl)); HEK293T; ligand: cyclic di-GMP (c-di-GMP-II aptamer); higher = less ribozyme self-cleavage, higher mRNA level; settings: reporter: mCherry (pCS4076), ligand present: no
Experimental: (§2)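 Hammerhead (sTRSV) ribozyme switch libraries with a ligand aptamer grafted on stem I and a randomized N4-6 loop II, cloned into the 3' UTR of mCherry and transiently transfected into HEK293T cells; RNA-Seq 72 h post transfection with ligand added 1 h before transfection; RNA read count / plasmid DNA read count normalized to the non-cleaving sTRSVctl (x100), log10; sequences with >100 DNA reads. FACS-Seq: lentiviral library sorted into 6 bins after 48 h ligand, log-normal fit mean of mCherry/BFP scaled to controls. Printed sequences are partial switch sequences.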

cyclic di-GMP [3] = variants of: B1; assay: FACS-Seq fitted mean relative fluorescence mCherry/BFP with ligand (log10 relative fluorescence); HEK293T; ligand: cyclic di-GMP (c-di-GMP-II aptamer); ligand concentration (+) FACS-Seq: 1 mM; higher = higher reporter protein expression; settings: ligand present: yes
Procedure, shortened: as §1

cyclic di-GMP [4] = variants of: B1; assay: normalized RNA/DNA level with ligand (relative to sTRSVctl = 100) (log10 (% of sTRSVctl)); HEK293T; ligand: cyclic di-GMP (c-di-GMP-II aptamer); ligand concentration (+) RNA-Seq: 1 mM; higher = less ribozyme self-cleavage, higher mRNA level; settings: reporter: mCherry (pCS4076), ligand present: yes
Experimental: as §2

Variant | FACS-Seq fitted mean (log10) (cyclic di-GMP [1]) | normalized RNA/DNA level without ligand (log10) (cyclic di-GMP [2]) | FACS-Seq fitted mean (log10) (cyclic di-GMP [3]) | normalized RNA/DNA level with ligand (log10) (cyclic di-GMP [4])
ACUCCC | -0.621 ± 0.049 | 1.77 ± 0.049 | -0.284 ± 0.087 | 1.87 ± 0.14
AGAAAC | 0.0659 ± 0.072 | 1.617 ± 0.0019 | 0.343 ± 0.052 | 1.8 ± 0.12
AGAAAG | -0.223 ± 0.077 | 1.5 ± 0.058 | 0.0417 ± 0.031 | 1.69 ± 0.1
AGAAAA | -0.765 ± 0.013 | 1.42 ± 0.084 | -0.587 ± 0.043 | 1.61 ± 0.089
CCUGCC | -0.367 ± 0.12 | 1.79 ± 0.018 | -0.0275 ± 0.059 | 1.89 ± 0.052
ACUUAG | -0.25 ± 0.093 | 1.59 ± 0.024 | 0.0154 ± 0.058 | 1.75 ± 0.096
CCUCAA | 0.0135 ± 0.11 | 1.46 ± 0.1 | 0.263 ± 0.07 | 1.67 ± 0.066
CCUCAG | -0.325 ± 0.018 | 1.669 ± 0.003 | -0.0311 ± 0.077 | 1.81 ± 0.14
UGAACG | -0.401 ± 0.086 | 1.74 ± 0.033 | -0.0168 ± 0.22 | 1.84 ± 0.11
ACGUUU | -0.522 ± 0.028 | 1.32 ± 0.16 | -0.336 ± 0.035 | 1.52 ± 0.078
UCUGUA | -0.293 ± 0.01 | 1.57 ± 0.089 | 0.0285 ± 0.0098 | 1.77 ± 0.041
UCGUAC | 0.087 ± 0.015 | 1.653 ± 0.01 | 0.277 ± 0.023 | 1.81 ± 0.14
CCGUAA | -0.4729 ± 0.0036 | 1.35 ± 0.17 | -0.242 ± 0.019 | 1.57 ± 0.082
CCGUAU | -0.719 ± 0.038 | 1.5 ± 0.015 | -0.441 ± 0.007 | 1.69 ± 0.16
CGCAAA | -0.531 ± 0.011 | 1.26 ± 0.097 | -0.262 ± 0.015 | 1.47 ± 0.085
ACGUAU | -0.637 ± 0.067 | 1.34 ± 0.1 | -0.336 ± 0.0036 | 1.54 ± 0.036
ACGUAA | -0.0329 ± 0.12 | 1.43 ± 0.079 | 0.314 ± 0.082 | 1.63 ± 0.087
